In series [1] the target is DnaG-binding domain of M. tuberculosis DnaB helicase (DnaBn, amino acids 23-166) (M. tuberculosis) (UniProt P9WMR3). Nature of the series: cross-linking; 4 μM DnaGΔZBD with DnaBn (0-15.9 μM), 0.045% glutaraldehyde, 40 mM HEPES pH 7.5, 150 mM NaCl, 10 mM MgCl2, 0.1 mM EDTA, 1 mM DTT, 25 min at 25 °C; SDS-PAGE, Coomassie.
For series [2] the target is unchanged. The series is described as follows: SPR; DnaBn (2.4 μg) immobilised on a GLC chip by amine coupling; soluble DnaGΔZBD 0-600 nM, 30 μL/min; 25 °C; 40 mM HEPES pH 7.5, 200 mM NaCl, 0.1 mM EDTA, 1 mM DTT; steady-state fit; normalised to a BSA channel; three repeats.
The series “SAXS” concerns the molecule itself. Nature of the series: SAXS.
Series [3] concerns the molecule itself. Nature of the series: cross-linking; 4 μM DnaGΔZBD with 0.011-0.25% glutaraldehyde, 40 mM HEPES pH 7.5, 150 mM NaCl, 1 mM DTT, 0.1 mM EDTA, 0.5% DMSO, 30 min at 25 °C; SDS-PAGE, Coomassie.

The results in this text go back to paper PMC12278352, “Characterization of DnaB–DnaG Interaction in M. tuberculosis Using Small‐Angle X‐ray Scattering‐Based Dissociation Assay” (Chembiochem, 2025).

The molecule “DnaG-binding domain of M. tuberculosis DnaB helicase (DnaBn, amino acids 23-166) (from UniProt P9WMR3 23-166) (domain or fragment)” had a stoichiometry N in series [1] of 2.

B1: M. tuberculosis DnaG without the zinc-binding domain (DnaGΔZBD, amino acids 115-639) (domain or fragment)
chain: SRLLAANAAAAAFYAQALQSDEAAPARQYLTERSFDAAAARKFGCGFAPSGWDSLTKHLQRKGFEFEELEAAGLSRQGRHGPMDRFHRRLLWPIRTSAGEVVGFGARRLFDDDAMEAKYVNTPETLLYKKSSVMFGIDLAKRDIAKGHQAVVVEGYTDVMAMHLAGVTTAVASCGTAFGGEHLAMLRRLMMDDSFFRGELIYVFDGDEAGRAAALKAFDGEQKLAGQSFVAVAPDGMDPCDLRLKCGDAALRDLVARRTPLFEFAIRAAIAEMDLDSAEGRVAALRRCVPMVGQIKDPTLRDEYARQLAGWVGWADVAQVIGRVRGEAKRTKHPRLGRLGSTTIARAAQRPTAGPPTELAVRPDPRDPTLWPQREALKSALQYPALAGPVFDALTVEGFTHPEYAAVRAAIDTAGGTSAGLSGAQWLDMVRQQTTSTVTSALISELGVEAIQVDDDKLPRYIAGVLARLQEVWLGRQIAEVKSKLQRMSPIEQGDEYHALFGDLVAMEAYRRSLLEQASGDDLTA
Molecule B1 returned a Kd in series [2] of 210 nM. Besides, the “stoichiometry N” value in the series “SAXS” amounted to 2. Besides, the “monomer:dimer ratio at 0.25% glutaraldehyde” value in series [3] was ~1.5 monomer per dimer.
